Reference: the supplement of paper PMC9112550, “Optimization of the antimicrobial peptide Bac7 by deep mutational scanning” (BMC Biology, 2022)

System: Escherichia coli TOP10
Experiment: shrunken log2 fold change of peptide-encoding DNA abundance (4.5 h post-induction vs induction); higher = less antimicrobial activity (less host growth inhibition)
Conditions: time post-induction: 4.5 h; library: site-saturation at positions 5, 18, 19, 20
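Also: peptides expressed intracellularly from a pBAD plasmid library in pooled LB shake-flask culture, induced with 0.3% L-arabinose, DNA abundance read by NGS, three biological replicates, DESeq2 with apeglm shrinkage.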

Row | Sequence | shrunken log2 fold change
1 | RRIRRRPPRLPRPRPRPDQPPRP | 0.0262
2 | RRIRLRPPRLPRPRPRPDAPPRP | 0.313
3 | RRIRRRPPRLPRPRPRPFCKPRP | -0.188
4 | RRIRLRPPRLPRPRPRPHFPPRP | 2.38
5 | RRIRMRPPRLPRPRPRPNFGPRP | 0.0832
6 | RRIRMRPPRLPRPRPRPNRYPRP | 0.166
7 | RRIRARPPRLPRPRPRPPSWPRP | 0.736
8 | RRIRIRPPRLPRPRPRPYMQPRP | -0.695
9 | RRIRARPPRLPRPRPRPAHPPRP | 0.653
10 | RRIRGRPPRLPRPRPRPGLCPRP | 0.957
11 | RRIRIRPPRLPRPRPRPRKMPRP | 0.142
12 | RRIRARPPRLPRPRPRPMYVPRP | -0.0341
13 | RRIRWRPPRLPRPRPRPRKVPRP | 0.302
14 | RRIRGRPPRLPRPRPRPNMIPRP | 0.0819
15 | RRIRYRPPRLPRPRPRPYCLPRP | -1.15
16 | RRIRIRPPRLPRPRPRPSIPPRP | -0.867
17 | RRIRQRPPRLPRPRPRPKKCPRP | -0.0485
18 | RRIRNRPPRLPRPRPRPMVRPRP | 4.1
19 | RRIRDRPPRLPRPRPRPEVWPRP | 1.75
20 | RRIRWRPPRLPRPRPRPYLRPRP | -0.37
21 | RRIRPRPPRLPRPRPRPPEEPRP | 0.885
22 | RRIRKRPPRLPRPRPRPGFVPRP | 0.259

Row | Sequence | shrunken log2 fold change
23 | RRIRMRPPRLPRPRPRPKKCPRP | 0.959
24 | RRIRSRPPRLPRPRPRPCVKPRP | -0.414
25 | RRIRYRPPRLPRPRPRPSERPRP | -0.417
26 | RRIRGRPPRLPRPRPRPKFLPRP | 0.267
27 | RRIRLRPPRLPRPRPRPCQSPRP | -0.0018
28 | RRIRGRPPRLPRPRPRPVTMPRP | 0.396
29 | RRIRNRPPRLPRPRPRPTYSPRP | -0.226
30 | RRIRTRPPRLPRPRPRPEEHPRP | 0.0062
31 | RRIRERPPRLPRPRPRPTLQPRP | 0.125
32 | RRIRKRPPRLPRPRPRPASAPRP | 0.59
33 | RRIRRRPPRLPRPRPRPHCGPRP | -0.0836
34 | RRIRMRPPRLPRPRPRPPKIPRP | 0.45
35 | RRIRLRPPRLPRPRPRPMRTPRP | 0.3
36 | RRIRNRPPRLPRPRPRPNCGPRP | 0.0526
37 | RRIRTRPPRLPRPRPRPASHPRP | -0.42
38 | RRIRQRPPRLPRPRPRPSARPRP | -0.00609
39 | RRIRRRPPRLPRPRPRPCHMPRP | -0.237
40 | RRIRMRPPRLPRPRPRPRSDPRP | 0.722
41 | RRIRTRPPRLPRPRPRPNIMPRP | -0.526
42 | RRIRPRPPRLPRPRPRPKPNPRP | 0.356
43 | RRIRTRPPRLPRPRPRPETSPRP | 0.199
44 | RRIRTRPPRLPRPRPRPNMPPRP | -0.0405

Row | Sequence | shrunken log2 fold change
45 | RRIRPRPPRLPRPRPRPRPYPRP | 0.173
46 | RRIRERPPRLPRPRPRPWPIPRP | -0.679
47 | RRIRGRPPRLPRPRPRPVKCPRP | -0.118
48 | RRIRRRPPRLPRPRPRPNWGPRP | 0.412
49 | RRIRQRPPRLPRPRPRPVTHPRP | 4.01
50 | RRIRWRPPRLPRPRPRPASFPRP | -0.0603
51 | RRIRQRPPRLPRPRPRPDFYPRP | -0.288
52 | RRIRVRPPRLPRPRPRPPCSPRP | -0.116
53 | RRIRLRPPRLPRPRPRPTKIPRP | 0.0747
54 | RRIRPRPPRLPRPRPRPMNYPRP | -0.736
55 | RRIRLRPPRLPRPRPRPHQDPRP | -0.308
56 | RRIRGRPPRLPRPRPRPACWPRP | 1.08
57 | RRIRYRPPRLPRPRPRPDYNPRP | -0.475
58 | RRIRPRPPRLPRPRPRPVQFPRP | 0.197
59 | RRIRCRPPRLPRPRPRPIEGPRP | 0.119
60 | RRIRDRPPRLPRPRPRPHIGPRP | -0.0522
61 | RRIRWRPPRLPRPRPRPNRQPRP | 0.175
62 | RRIRMRPPRLPRPRPRPPKFPRP | 0.166
63 | RRIRDRPPRLPRPRPRPEKMPRP | -0.00458
64 | RRIRRRPPRLPRPRPRPSTNPRP | -0.0966
65 | RRIRSRPPRLPRPRPRPKKQPRP | 0.0417
66 | RRIRCRPPRLPRPRPRPCELPRP | -0.146

Row | Sequence | shrunken log2 fold change
67 | RRIRMRPPRLPRPRPRPNQYPRP | -0.218
68 | RRIRMRPPRLPRPRPRPNIAPRP | 0.397
69 | RRIRDRPPRLPRPRPRPKPPPRP | 0.471
70 | RRIRARPPRLPRPRPRPPTLPRP | 0.503
71 | RRIRWRPPRLPRPRPRPKWYPRP | -0.235
72 | RRIRPRPPRLPRPRPRPLNMPRP | -0.432
73 | RRIRRRPPRLPRPRPRPPVCPRP | 0.592
74 | RRIRHRPPRLPRPRPRPDSDPRP | 0.0112
75 | RRIRGRPPRLPRPRPRPMAPPRP | 1.2
76 | RRIRDRPPRLPRPRPRPCAIPRP | 0.029
77 | RRIRFRPPRLPRPRPRPEDSPRP | -0.00878
78 | RRIRQRPPRLPRPRPRPVDKPRP | -0.0881
79 | RRIRKRPPRLPRPRPRPHLMPRP | -0.129
80 | RRIRKRPPRLPRPRPRPDRNPRP | 0.158
81 | RRIRPRPPRLPRPRPRPTVQPRP | 0.182
82 | RRIRFRPPRLPRPRPRPVAFPRP | -0.141
83 | RRIRERPPRLPRPRPRPTRCPRP | -0.0341
84 | RRIRYRPPRLPRPRPRPRKTPRP | -0.00513
85 | RRIRFRPPRLPRPRPRPCESPRP | 0.00749
86 | RRIRERPPRLPRPRPRPWLTPRP | -0.0528
87 | RRIRIRPPRLPRPRPRPRFLPRP | -0.216
88 | RRIRFRPPRLPRPRPRPNDCPRP | -0.415

Row | Sequence | shrunken log2 fold change
89 | RRIRMRPPRLPRPRPRPMYIPRP | -0.0178
90 | RRIRYRPPRLPRPRPRPRIRPRP | 0.0291
91 | RRIRDRPPRLPRPRPRPVHIPRP | -0.144
92 | RRIRDRPPRLPRPRPRPCFAPRP | 0.512
93 | RRIRTRPPRLPRPRPRPSMPPRP | -0.363
94 | RRIRSRPPRLPRPRPRPIYIPRP | -0.776
95 | RRIRWRPPRLPRPRPRPNDIPRP | -0.565
96 | RRIRPRPPRLPRPRPRPMIYPRP | -0.113
97 | RRIRGRPPRLPRPRPRPDPRPRP | 0.716
98 | RRIRDRPPRLPRPRPRPMCGPRP | 1.12
99 | RRIRHRPPRLPRPRPRPTSSPRP | -0.0142
100 | RRIRSRPPRLPRPRPRPCLFPRP | -0.193
101 | RRIRHRPPRLPRPRPRPCFVPRP | 0.0216
102 | RRIRIRPPRLPRPRPRPGTWPRP | -0.475
103 | RRIRERPPRLPRPRPRPIVQPRP | -0.311
104 | RRIRPRPPRLPRPRPRPRARPRP | 0.58
105 | RRIRCRPPRLPRPRPRPLWYPRP | -0.307
106 | RRIRWRPPRLPRPRPRPKIMPRP | -0.198
107 | RRIRNRPPRLPRPRPRPTACPRP | 0.0275
108 | RRIRVRPPRLPRPRPRPPIYPRP | -0.16
109 | RRIRGRPPRLPRPRPRPMNIPRP | 0.127
